From patent US20060121483A1, “Methods for detecting teneurin signalling and related screening methods” (priority 2002, published 2006)

Molecular target: TEY (teneurin-2 construct: Transmembrane, EGF-like and YD-repeats; entire long form of the extracellular domain, without cytoplasmic domain) (chicken) (UniProt Q9DER5)
Test: cell-based or functional assay

In the case of “BDAD-CTEY (GAL4 binding domain and NFkB activation domain fused to full length teneurin-2) (from UniProt P04386 1-147; Q9DER5 1-2802)”, the Luciferase activity (GAL4 reporter; cleavage of the BDAD-teneurin-2 fusion) is reported as 6 fold.
